Reference: article PMC12005765 (Advanced Science, 2025)

How the values were obtained:
Assay in all cases: SPR; IgGs or Fc fusions captured on antihuman Fc polyclonal antibodies amine-coupled to a CM5 chip; spike trimer or CD3 epsilon-delta heterodimer injected; blank flow cell subtracted; 1:1 Langmuir model, simultaneous global fit of ka and kd, KD = kd/ka; BIAcore 2000 (methods) or BIAcore T100 (footnote of Table S3)
[1] = target: ectodomain of the S trimer from the prototypic SARS-CoV-2 Wuhan-Hu-1 strain (SARS-CoV-2 Wuhan-Hu-1) (UniProt P0DTC2)
[2] = target: SA07, anti-S/CD3 bispecific antibody-like molecule from ACE2-Fc/UCHT1 (UniProt Q9BYF1)
[3] = target: SS12, anti-S/CD3 bispecific CrossMab from S3H3/UCHT1
SS12, anti-S/CD3 bispecific CrossMab from S3H3/UCHT1, sequence (heavy, as listed by the source, chain 1 of 4): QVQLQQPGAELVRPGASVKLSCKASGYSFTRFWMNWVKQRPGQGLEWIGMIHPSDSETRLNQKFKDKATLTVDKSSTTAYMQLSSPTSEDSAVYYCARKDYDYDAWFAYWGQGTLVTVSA
SS12, anti-S/CD3 bispecific CrossMab from S3H3/UCHT1, sequence (heavy, as listed by the source, chain 2 of 4): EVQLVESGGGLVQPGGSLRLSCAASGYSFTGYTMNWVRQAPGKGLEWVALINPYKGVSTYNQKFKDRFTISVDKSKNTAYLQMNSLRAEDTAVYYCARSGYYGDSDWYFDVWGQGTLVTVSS
SS12, anti-S/CD3 bispecific CrossMab from S3H3/UCHT1, sequence (light, as listed by the source, chain 3 of 4): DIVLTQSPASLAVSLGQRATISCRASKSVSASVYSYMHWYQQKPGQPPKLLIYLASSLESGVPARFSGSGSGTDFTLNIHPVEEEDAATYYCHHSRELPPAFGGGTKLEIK
SS12, anti-S/CD3 bispecific CrossMab from S3H3/UCHT1, sequence (light, as listed by the source, chain 4 of 4): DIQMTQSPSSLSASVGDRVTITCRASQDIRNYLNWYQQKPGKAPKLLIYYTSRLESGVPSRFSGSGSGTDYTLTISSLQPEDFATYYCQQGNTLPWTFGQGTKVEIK

Substance	Kd [1]	koff [1]	kon [1]	Kd [2]	Kd [3]
SC02, anti-S/CD3 bispecific CrossMab from CV3-25/UCHT1 (bispecific antibody)	4.82 nM	0.00436 s⁻¹	904000 M⁻¹ s⁻¹	–	–
ectodomain of the S trimer from the prototypic SARS-CoV-2 Wuhan-Hu-1 strain (from UniProt P0DTC2 14-1213) (domain or fragment)	–	–	–	9.39 nM	6.2 nM
